Patent publication US20260103532A1 (published 2026)

Molecular target: CD40 (UniProt P25942 21-193, limits assumed)
Test: not stated (affinity given in the study drug description; no method)

Sequence of CD40 (P25942 21-193 limits assumed): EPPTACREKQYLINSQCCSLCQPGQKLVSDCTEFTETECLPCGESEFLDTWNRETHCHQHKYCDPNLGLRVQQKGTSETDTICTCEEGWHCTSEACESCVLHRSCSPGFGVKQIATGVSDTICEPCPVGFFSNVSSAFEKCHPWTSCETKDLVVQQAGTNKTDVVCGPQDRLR

Kd: 7.2 nM
B1: KPL-404 (antibody, human IgG4 S228P, kappa, V domains shown)
VH: QVQLVQSGAEVKKPGASVKVSCKASGYTFTNYWMHWVRQAPGQRLEWIGYINPSNDYTKYNQKFKDRATLTADKSANTAYMELSSLRSEDTAVYYCARQGFPYWGQGTLVTVSS
VL: EIVLTQSPATLSLSPGERATLSCSASSSVSYMHWYQQKPGQAPRRWIYDTSKLASGVPARFSGSGSGTDYTLTISSLEPEDFAVYYCHQLSSDPFTFGGGTKVEIKR
notes: also called humanized anti-CD40 antibody; KPL-404 drug product
